Patent publication US20070042954A1

Target: bact sCRFR2α (mouse soluble CRF receptor type 2α, amino acids 20-143, purified from E. coli) (mouse)
Experiment: radioreceptor assay, displacement of [125I-DTyr0]-astressin from purified sCRFR2α

- Ki: 10 nM
Substance: Astressin (peptide)
